Measurements: patent US20190256612A1 (NEW YORK UNIVERSITY, published 2019)

What was measured:
[1] = molecular target: T1, glutaraldehyde polymerized Aβ1-42 (oligomeric Aβ1-42) (UniProt P05067 672-713); test: SPR, polymerized Aβ1-42 immobilised, antibody injected
T1 construct: domain: Aβ1-42

Aβ40p = molecular target: T2, Aβ40p (Covalently polymerized with glutaraldehyde into stable oligomers. The cross-links between copies cannot be carried by the letters, so only the monomer unit is given.); test: immunoblot after SDS-PAGE, antigen on nitrocellulose, anti-mouse IgM detection
T2 construct: also called Aβ1-40 polymerized; Aβ1-40 polymerized with glutaraldehyde

Aβ1-40 = molecular target: T3, Aβ1-40; test: as above
T3 construct: also called Aβ1-40 as loaded on the gel (not polymerized)

B1: anti-β-sheet conformational monoclonal antibody (aβComAb) GW-23B7 (antibody)
heavy: EVQLQQSVAELVRPGASVKLSCTASGFNIKNTYMHWVKQRPEQGLEWIGRIDPANGNTKYAPKFQGKATITADTSSNTAYLQLSSLTSEDTAIYYCARGSFYAMDYWGQGTSVTVSSESQSFPNVFPLVSCESPLSDKNLVAMGCLARDFLPSTISFTWNYQNNTEVIQGIRTFPTLRTGGKYLATSQVLLSPKSILEGSDEYLVCKIHYGGKNRDLHVPIPAVAEMNPNVNVFVPPRDGFSGPAPRKSKLICEATNFTPKPITVSWLKDGKLVESGFTTDPVTIENKGSTPQTYKVISTLTISEIDWLNLNVYTCRVDHRGLTFLKNVSSTCAASPSTDILTFTIPPSFADIFLSKSANLTCLVSNLATYETLNISWASQSGEPLETKIKIMESHPNGTFSAKGVASVCVEDWNNRKEFVCTVTHRDLPSPQKKFISKPNEVHKHPPAVYLLPPAREQLNLRESATVTCLVKGFSPADISVQWLQRGQLLPQEKYVTSAPMPEPGAPGFYFTHSILTVTEEEWNSGETYTCVVGHEALPHLVTERTVDKSTGKPTLYNVSLIMSDTGGTCY
light: DVQITQSPSYLAASPGETITINCRASKSINKYLAWYQEKPGKTNKLLIYSGSTLQSGIPSRFSGSGSGTDFTLTISSLEPEDFAMYHCQQHNEYPWTFGGGTKLEIKRADAAPTVSIFPPSSEQLTSGGASVVCFLNNFYPRDINVKWKIDGSERQNGVLNSWTDQDSKDSTYSMSSTLTLTKDEYERHNSYTCEATHKTSTSPIVKSFNRNEC
Q: Which Kd [1] does the source give for B1 here?
A: 14 nM

Q: Does B1 bind (Aβ40p)?
A: binds

Q: Does B1 bind (Aβ1-40)?
A: binds
